The data set is described as follows: soluble on expression in E. coli; label from the status in PepcDB or PDB records.
As to “MAHHHHHHMGTLEAQTQGPGSMSVSAAPSATSIDRYRRITKLGEGTYGEVYKAIDTVTNETVAIKRIRLEHEEEGVPGTAIREVSLLKELQHRNIIELKSVIHHNHRLHLIFEYAENDLKKYMDKNPDVSMRVIKSFLYQLINGVNFCHSRRCLHRDLKPQNLLLSVSDASETPVLKIGDFGLARAFGIPIRQFTHEIITLWYRPPEILLGSRHYSTSVDIWSIACIWAEMLMKTPLFPGDSEIDQLFKIFEVLGLPDDTTWPGVTALPDWKQSFPKFRGKTLKRVLGALLDDEGLDLLTAMLEMDPVKRISAKNALEHPYFSHNDFDP”, the “soluble on expression in E. coli” value is given as “soluble”.
Next, “MAHHHHHHMGTLEAQTQGPGSMTAASSSAPTLGIIRLEHAKGLDLPAYETAGSAGMDLRAAVAEDRQIVLLPGRRTLVPTGLILEIPQGYEVQIRPRSGLAFKNGITCLNTPGTIDSDYRGEVKVLLINLGDDDFRIERGMRIAQAVFAPVIQPKIEERAKISETARGAGGFGSTGTA”: “soluble”.
On to “MAHHHHHHMHDRIFAFAQQKVGLTAEQAECLSRKYWLNYGLSLYGYVKEYNVDAKEYSDFVHQCSYDKLHYNKPLIDMLLIMQYAPEAARGHDGPRSTNIDHLYYFTNANHSHARNVLDAQGLRPIFTRPRPVGLPVKENHPASEQAGAEDQVEWLGFSYEDQWQLTHPEIANKPMRQAYEAIYKAIEDQVAEDAALVATTTTAGSGSAFASSSASRNSDIAEEVKNKRARLRPENFVMVDDSLMNIDAPLELGWSAVWYAHDTQELPTDVKDNASAPLYAAAVASGRLQVIRNILELRAAVERIREVNSRSASS”, for which the “soluble on expression in E. coli” value is “not soluble”.
Turning to “MAHHHHHHMHTNTMEVVVKHMGAAFSVAVIPVLKDNYTYIIHDKTTNTMAAVDVSADTTPIVDYVERIRRSIDERGAGAMSFSTIFSTHKHWDHAGGNVVLPKALKAAGAFRIIGGVNDNISGVTQTVREGDRLSLGALQVEVLEAPCHTRGHVLYKVYHPQAEKDGVALFTGDTMFVGGIGAFFEGDAAHMCRALRKVYNLHHNATDKEEADRRTFVFPGHEYTVNFLQFARDTIPPAHPDATFIASQLERYKESVAQRKPTVPSTLAEEKRQNLFLRTCDESFVREMKHGDTAETLMQHLYDTCP”, the “soluble on expression in E. coli” value is recorded as “not soluble”.
In the case of “MAHHHHHHMIHEMCFQELSDSILPAHNGEVALMLATGSPFTDAMTTAAPQQDVWGSSLFSLPELGTDLHSEVSQQNIEKSGSNLNCELQTASHVCNLAPVTFKEEQNKTRITESNTTFGPTPSMHCLSFGSVNAQSNIPSIANSTPNPLACSMVCTSQAPQLSFSSLMSIGNTTVPANSSSTTNGLAYQQASPVATVSNGIPAFFTTAQNGGNVVMFAPSNSQQTLCIPTPVPTMIPYYVIAPPQHTVEVNGTMAYSSLSTAPQSMPPVMCGPWTTNTGSVVGSGAPTPVSVSSASGVMPQTFVTSVTTKPSQPVSFSFPSGDSNQNSASASSIIPLCADGSGNQKAPPRGSPPSYDSLRIQITKRRQPSGRQRSGTNVHGSLQGICSYYSYNLSAALKQYEHPDFHVAKPVEQVLPVFVQMFPCELRDRTIIVLNRVVEATCGPDIATVVGIEPRSETSFITLIRTNDVWHLIHKLRCRVLMDRHGFWYAENMEQYLRLKEYCESVRRLPQQIRHFQTDGLPCMPLVVELSRSVNAASVTSLPAPPSFDEVAPIATMERHGRVATLTGSNEDGSSSPRETGEVINAAAVPLPSGVGRV” it was “not soluble”; in that of “MAHHHHHHMITSINVIHELLTTIYCRIFSRKRKDIYKYDVLLYLQDYYYFDVIKRVSDDIKELDDDSITIEINSNEYEVILNGDKSSSFFNHTFENFCIHRGYDIIKDKTYSNEYEKRIDFLHELLCDLLCLLLNENNEKKGKEKEKEEKKNNMNKNMNYNKERVINKMYHNNNHLFKKFWENIQDILKEINILNENKYVEDINEENIKDILYIQKEKLIKNEDIIIKKNVDINKITLLNNLIEKYNNEYKYRFYYIFLNNYLTIQTMFTSNMIYLYSYEIQNIIHKIIKMKINLYQPLTIYDVLAFQYDQIMFHKSSYMNLISPVKKIKILNNIVERGGDPDEFSKKVIIKDVINANISLKAKFNKARTQNDNNWGNNKYKVRNYYDNNRR”, “soluble”.
In the case of “MAHHHHHHMKALVFLEVEESATGSNTARSTATQMHALFAGLVEMSMHVYLEKDASLAAASGAAEARVLLLSTVVKDLLSVREQSRSSPAQYVRYVQRMLIARTPVVPYITTQLLQDCQSQTALLTTSHGPTVLGAKRGDPAECFSVVHPRRYR” it was “not soluble”.
As for “MAHHHHHHMKCFLIVDAQNDFLPTGSFNSRDDYMDTLNKINAIRLRLHNCTEKDLLKLSNCKHLMKYQPDKLLKENIVQYHQCNNDIDDDEREGDILIFPTDHRVMTCLSNRLSASNICSDLHKQTAQGTANGVERIPNNNNNGFSHTKEGTSHNGTHMHNHHPDESHQKNVETNDVETNNLARRNRSKESTNSENAKFALNILSVDYHPPCHISFAETHRILFEQIKRNKGTKNSSAEINIDRVTELSSHAQVNSSVASEEEAEGAHAEEAECDDEGTPSLDHTNEADGGEVQEPPQADLLQSAFLKKNKIFNLTDVMKNIQKIKSTRYIYKNVNSVSDIKEYSKLNFLNEWIDVWPIHCVRNTPGCKVHPNLIRHINDIVIKKADTENHDSHTIFENSEINQKILNLLKKQNIKSVYICGFIFEYCVKETALSFFNLGFDTYIVEDATAYLFGREEDKDNLKKKGIKFVNSSTMFA”, the “soluble on expression in E. coli” value is on record as “not soluble”.
With “MAHHHHHHMKFDKRECINVDLTSQISEQDVTQSVSKGEKKRDSLPQNEKESELSAEKESQMSQPKADEANLKRENSPLSEPNRKGTSVNKKNDCETSHTDKETNLKEYYKDLPTVIIVIGMAGSGKTTYVGSLYNYLKVEKKKKVYTMNLDPAVKYVQYPVNIDIRDSIKYHEIMKEYKLGPNGAIMTCLNLFATRFDKVIEILEKRKNKLHYIIVDTPGQIEVFNWSASGNIILETLSVSFPVVINYIIDTVRCERPITFMSNMLYACSVLYKARLPFLACFNKVDIIKHDKCIEWMKDYDSFNDDVIHDESYMASFSRSCALMINEFYEGIKTVGISSKTNEGFNSILKNLELLKEEYINEYVTSIEKQMKRIKRKKEKDIKLKMENLLIEKQKDLSSSKNKSVN”, the “soluble on expression in E. coli” value was “not soluble”.
In the case of “MAHHHHHHMKKACKLASECLKLCLENSKEGITTDIIDNMAYDFYIKNNAYPAGLNFHSFPKSICASPNEVVCHGIPNLRKLQRGDIITYDCTVFLDGVFGDCAGTVGIGEISERHKKLMDVSKECLYKAISICRDGQLFSEIGRIITEHANKNGFNVIKDFCGHFIGTHMHMYPLIEHHYPNSHNNHRMKKGQIFTIEPILSEGSINIYTWKDKWTVCTNDNSFCSQWEHTILVLDNYAEILT” it was “not soluble”; in that of “MAHHHHHHMKKKGCHSDRKHCQKHVQAELCLFILHSVLRKCPNKMVHSILQNSHGNIRKKFEISLKHETSTPAPQKRRREVLLKRKTNSKRGNRA”, “not soluble”.
Next, “MAHHHHHHMKKNFPQSYNFFPLTWILPNEISDFKNYFKKESGSKTYIVKLKNSCQGKGIYLTKTLDNINKYDSCVIQKYIHKPLLINGLKFDIRLYVLVTGCDPLRIFLHEDGLVRFSIEKYKLPKSKNLKQVNMHLTNFSINKKSDKFENSPNPDDATMGHKRSWKAFLQKLKEEGLPMDSVMKRIEHMIVKTICSIQPELKHYYNSAHISDYSNSMCFEVLGFDILLDYKLKPWLLEVNHSPSFATSSLVDEKVKYAVIRDTLNMLYMHSKYRHIHIQEYLNLQKFRKKYSDVL”: “not soluble”; “MAHHHHHHMKRENVSFPHAQSNVVSNLDGNTLLNDSLVQQSCSPTESKEDVKTEYDSFVDAPVIPLTEKFDDNYSQPVSTVNPRDDSIKCEMDVLPASSLTSVCNRKVIHGEKVDNDRVKIVRDWLLMPVLSQDSDFEGDGDDFIDTLLHIAEDKMYLYGFYERLGQTELVTTRRINNRKRSRGSNGISHATGNQGAQAPVMATSPPQVLPFSFVNWLPNSGKGRCDPERVHQQTISSDAILCSGEKYTLCRYALSSGKLRKECADPYQFLTAKLQEIRHCMEEELMGDAKNSNEKKTGVTDY”: “not soluble”.
In the case of “MAHHHHHHMKWSAVCLLKRDFDAWAYSINWPQRKSHLPLLGSVSLTVEDIKFAYNAWCLLRLAMFFGTGHPKILSPLVNTTPSMDIMYGGNRLFYMHAEVGASLSRHKPKVALTPSHPDAQPVQSFPWRKVIREAGERRTGNEDCDGGVEIVLGMENGLSENVVSQCDYCLYIPQYGSIGSLSMISAMAIALHSAASAHVDQYMRDDDRVSPCSSRGHMPLSNGSLKVTKGNNLPHETNLLSLSNVEIAEILRARRMSYPMQLSVMVYNEFGDRNIGAIMRNANVFNCEQMIVLHRRKFNRRGALGTQHLIKTLFCSGVDDAQCQKSLEGYTIWLLYQYYPYLKIYEDPNGDEDATFIRPESTLLQEWLQGSYGMNPDHPMMNFHASHMIGTDVYLDDSDSVHAAVRHAANEGYRGIVLVVPEEGASFQRDIVKKARRIAYVVHPDRLARNVQRGLNGALSSAIALERLRTAIDGLQ” it was “not soluble”; in that of “MAHHHHHHMLETQHLHTHSGRLIPPPPRRTPRRKSSVCRTPTRRHNPAESGLSASSKTTRSDVYECRMAPVRGRRESHDSTPGRPRAPEDVNYARGRSMNERPAPSKPQCAIPSKNGRLEESRASTLAVDRERFSQTRWGRSDEIISQSPLAGRSHSLREGEFCDPQALTMRLRHSLSRGYSPQCGHPTQAVVGTELAPPMPRLQGAYGTSKNRYRKTIERFIECQPTNTQKEMQSMLEEYRGRENELCEALSVAYSDSWEASVRGNDTIIQSHKNDNCSKFALNESPGMPEMKDFPRVGNGKGHFDSMNNGECNHNATAENHRQRMTKPTSSSHSTPSRFQDSHQNVDCLRSFSDVATPRRNEGINLSKSAEKERYDEDTSPHLRNGSSGGVNVPLSLGIILEQGETSPRSGGMLTPPIPADLLAR”, “not soluble”; in that of “MAHHHHHHMLKKFSPLSFMVLQKRYNKSEQKIFDKIKNIINSNKNLRHTDDEKDKIEIINIDNEIINKENISFKCNIINEDSTKNENKKDNIDEMTNVNIYDDYFNINDEYNNVMSNDNDNVDIKSFIRETVDYYKSLQLKKKEDHLNVLNVKKKDYSNIKEYYNKNEEIKEIVQDNNFIWNNKNYDKKNIHSGFHSDIIYYDNYDTTKSKHNQNIQNGQNIQNGQNIQNGQNIQNNQNNQNIQNIQNNQNNQHCHNSTHEKNCGSYNFLTPAQVFFENNKEKLIQESYKYYKERENNINKEDYLYDENEGYYNYANMKTPIIRPNDKEGFLFNYEDDDYNNNDDEGEDDMTLEKGIMPTIEQIVCILKHEKVKDIKVIDLDKCGRRDIGMFLILCTGNTAKHNKKVGKLISKIFIDLEIPYISNVVYCYCNKFDDWIITHCGPLKINIVTKELRNLYDIENLFLYPHEHFDSTNFPSFFDYTPGIPPPYLVRSNASMDSYKNDDIYTKFLTEK”, “not soluble”.
On to “MAHHHHHHMLLAIVRDLLQLFRPYAAALHPETTQVWFSVRDTPLSWLYPAGAVKDYVNECVREERAAHLSASSPSSPPLSSAAALLQSHLCTILSEPLELSFHIHSLTKGSSLARTVPLYINYDRLEEHIRMEVKQAHKAAYTVLYGNYAIYQREAESALQAAVGLALYRPFDAAAQEQLQQQRYRDPGSSGSGGAGVGNGGYSSSNSPGGGYSAPFAFTSPYLLVEYQQLLRGLLTPRPHVAYLIRIGFPFAYRGAAGRSESGYLQYDAHRVSAAPALALSVTTTEAAAAPTMEPEQLPLGLLLWRLFRAPVLRWKAQQLQQHPTDNTSPSTAAHASATVLSEVERTYQQLLRTLAPYYADPPRCATDGLEQQEPLMTSTPPEPPAWAAWERAMVQAFMRDYEERPEKCGLGFEFAEAAATSAASPNAVRRVRFMVQGIQPPLTTPGSFLEAHLSSSDRAIFVTVQV”, for which the “soluble on expression in E. coli” value was “not soluble”.

(Values after the DeepSol protein solubility set.)
